Experimental data from patent US20250215105A1 (BRIGHTPATH BIOTHERAPEUTICS, published 2025).

Target: T1, human CD39 on the cell surface (human, UniProt P49961 1-510)
T1 construct: whole, on cells; This one entry covers every cell-surface human CD39 assay, on transfected and on endogenous cells; also called 239T-hCD39; Jurkat-hCD39
T1 sequence (looked up): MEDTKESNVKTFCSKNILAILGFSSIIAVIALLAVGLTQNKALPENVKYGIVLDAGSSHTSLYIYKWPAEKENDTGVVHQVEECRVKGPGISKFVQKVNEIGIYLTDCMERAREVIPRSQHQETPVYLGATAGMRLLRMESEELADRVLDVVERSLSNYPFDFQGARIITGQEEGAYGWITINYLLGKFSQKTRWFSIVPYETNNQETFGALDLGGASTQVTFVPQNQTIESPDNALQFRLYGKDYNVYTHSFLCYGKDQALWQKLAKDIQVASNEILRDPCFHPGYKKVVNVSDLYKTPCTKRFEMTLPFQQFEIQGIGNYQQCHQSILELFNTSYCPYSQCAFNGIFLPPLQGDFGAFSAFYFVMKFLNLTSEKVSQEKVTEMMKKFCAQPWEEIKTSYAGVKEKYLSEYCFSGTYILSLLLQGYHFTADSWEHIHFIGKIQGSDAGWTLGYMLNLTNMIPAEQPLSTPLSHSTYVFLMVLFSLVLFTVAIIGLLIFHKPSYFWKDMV
Experiment: flow cytometry on human CD39-overexpressing HEK293T or Jurkat cells

binding result: binds
B1: P4_h1lala (antibody, V domains shown)
VH: QVQLKESGPSLVQPSQSLSITCTVSGFSLTNYGVHWVRQSPGKGLEWLGVILRRGSTDYNAAFMSRLSITKDNSKSQVFFKMNSLQADDTAIYYCAKTAVVAGDYFDYWGQGTTLTVSS
VL: DIVMTQSHKFMSTSVGDRVSVTCKASQNVGTNVAWYQQKPGQSPKALIYSASYRYSGVPDRFTGSGSGTDFTLTISNVQSEDLAEYFCQQYNSYPLTFGTGTKLEIKR
notes: Chimeric antibody
